A short description of the data set: protein stability index of a GFP-peptide fusion (GPS, HEK-293T) (PSI 1-6); higher = more stable. Particulars: c terminus: a fixed tail appended.

± gives the standard deviation.
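Note: 24-mer peptide tiles fused after GFP, lentivirally expressed, FACS-sorted into six equal bins by GFP/DsRed ratio, decoded by Illumina sequencing, PSI is the read-weighted mean bin number.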

CSPTAHDRECKLPPPSAPASEYCP [WDR88]: the protein stability index was found to be 4.55 ± 0.088 (treatment: DMSO) and 4.584 ± 0.039 (treatment: MLN4924 1 uM, 8 h).
Turning to CSSARHPAWGHCFYRLYQDLETHR [SCNN1D], the protein stability index by setting is: (treatment: DMSO) 2.15 ± 0.17; (treatment: MLN4924 1 uM, 8 h) 2 ± 0.16.
The corresponding values for CTLEQDHFKKQTIYRFLKLHPRGK [FEM1C] are 2.43 ± 0.27 and 2.65 ± 0.37.
Turning to CYNGQDAVVNELIDYGANVNQPNN [ANKRD44], the protein stability index reads like this: (treatment: DMSO) 4.16 ± 0.088; (treatment: MLN4924 1 uM, 8 h) 4.24 ± 0.21.
Consider DAEFLCVFCREGPTHQAHTVGFLD [TRIM15], for which the protein stability index was determined as 2.31 ± 0.27 (treatment: DMSO) and 2.34 ± 0.33 (treatment: MLN4924 1 uM, 8 h).
Taken in the same sequence, the figures for DAETPPRFTRTPVDQTGVSGGVAS [PTPRD] were 5 ± 0.31 and 4.638 ± 0.016.
For the sequence DAVFMKDGFFYFFHGTRQYKFDPK [MMP1], the protein stability index amounted to 2.25 ± 0.33 (treatment: DMSO) and 2.1 ± 0.13 (treatment: MLN4924 1 uM, 8 h).
Taken in the same sequence, the figures for DDALEDFKKVLDLNPGFQDATLSL [TTC32] were 3.73 ± 0.32 and 3.85 ± 0.32.
The corresponding values for DDFFRHESGEHFRSLLGYDPQILQ [RAD54B] are 3.44 ± 0.22 and 3.29 ± 0.26.
Turning to DEIYRVLRYVNSTRAPQRAHEVLQ [FBXO28], the protein stability index is, setting by setting: (treatment: DMSO) 2.43 ± 0.28; (treatment: MLN4924 1 uM, 8 h) 2.44 ± 0.33.
On to DELAHRCSSFMAPPVTDLGELRRR [CPOX], for which the protein stability index by setting is: (treatment: DMSO) 3.92 ± 0.11; (treatment: MLN4924 1 uM, 8 h) 4.04 ± 0.3.
The corresponding values for DEQLNEFHCLWDDSFPEGPERLHA [HDAC6] are 4.55 ± 0.3 and 4.46 ± 0.35.
As to DFITLYQMASQSSASHYKLQVIKA [M1AP], the protein stability index by setting is: (treatment: DMSO) 2.63 ± 0.3; (treatment: MLN4924 1 uM, 8 h) 2.44 ± 0.43.
The corresponding values for DGAGRTWQDSDTVKLLVDLELSYG [TOR1AIP2] are 2.37 ± 0.48 and 2.79 ± 0.43.
Taken in the same sequence, the figures for DGPCHKRRASICCTQLGSLSALKH [SCARA5] were 3.79 ± 0.11 and 3.65 ± 0.076.
With DHLENVSKLVESGIQFMDEPEMAV [TRIM55], the protein stability index reads like this: (treatment: DMSO) 4.54 ± 0.45; (treatment: MLN4924 1 uM, 8 h) 4.75 ± 0.41.
The corresponding values for DIKRGIPNYEFKLGKITFIRNSRP [UFD1] are 2.27 ± 0.17 and 2.34 ± 0.21.
The corresponding values for DINLNSPNKGLLSDSMTDVPVDTG [TPD52L2] are 4.19 ± 0.2 and 4.51 ± 0.22.
In the case of DITEGDRKPDYTAYVAMIPQCIKE [ATF4], the protein stability index came to 3.28 ± 0.27 (treatment: DMSO) and 3.38 ± 0.37 (treatment: MLN4924 1 uM, 8 h).
Take DKALMIAMEYAPGGTLAEFIQKRC [NEK8]: the protein stability index stood at 2.39 ± 0.26 (treatment: DMSO) and 2.54 ± 0.17 (treatment: MLN4924 1 uM, 8 h).
The corresponding values for DKDVRLLVACCLADIFRIYAPEAP [PDS5B] are 3.08 ± 0.48 and 3.02 ± 0.08.
The corresponding values for DKLYHPECFMCSDCGLNLKQRGYF [PDLIM4] are 2.22 ± 0.18 and 2.23 ± 0.33.
Sequence DKRHVEQKIQFKRETASLKLLPHQ [PDZK1] had a protein stability index (treatment: DMSO) of 3.85 ± 0.31 and a protein stability index (treatment: MLN4924 1 uM, 8 h) of 3.8 ± 0.24.
The corresponding values for DLCPPIGRRAATALLWLSCSIALL [GNAS] are 2.59 ± 0.63 and 2.19 ± 0.28.
DNLRKVVPCYSKTQKLSKIETLRL [NEUROD6]: the protein stability index stood at 2.81 ± 0.17 (treatment: DMSO) and 2.8 ± 0.32 (treatment: MLN4924 1 uM, 8 h).
The corresponding values for DNSLSSQNYISQKEDASEFQILKY [MIA2] are 3.94 ± 0.27 and 3.74 ± 0.6.
The corresponding values for DPNINPTIGASFMTKTVQYQNELH [RAB22A] are 4.29 ± 0.31 and 4.19 ± 0.23.
On to DPPLSQDERTHRSDRPFKCNQCGK [ZNF8], for which the protein stability index is 5.01 ± 0.24 (treatment: DMSO) and 5.11 ± 0.14 (treatment: MLN4924 1 uM, 8 h).
Regarding DPTGASIALFTARLHHPHKSVQHV [PTPN9], the protein stability index came out at 2.37 ± 0.29 (treatment: DMSO) and 2.64 ± 0.23 (treatment: MLN4924 1 uM, 8 h).
The corresponding values for DQCKINKQIYNLIHLDPRTREGFT [FEM1B] are 2.2 ± 0.35 and 2.52 ± 0.38.
Taken in the same sequence, the figures for DRDAEDQNRYLDGMVRAHGVRVSV [BET1L] were 3.85 ± 0.22 and 3.87 ± 0.29.
Taken in the same sequence, the figures for DRISTTFRLTTLLMSGCSSELKNR [PLK2] were 2.19 ± 0.46 and 2.43 ± 0.18.
For the sequence DRNVVTIFSAPNYCYRCGNQAAIM [PPP2CA], the protein stability index runs as follows: (treatment: DMSO) 2.7 ± 0.79; (treatment: MLN4924 1 uM, 8 h) 2.11 ± 0.23.
The corresponding values for DSCCPAGIFQAMCLLICAEMYQVS [RHOBTB3] are 3.07 ± 0.12 and 3.02 ± 0.31.
Turning to DSKHVVLPVDDDSDLNVVASFDRR [RBBP5], the protein stability index (treatment: DMSO) was 4.73 ± 0.39 and the protein stability index (treatment: MLN4924 1 uM, 8 h) amounted to 5.21 ± 0.23.
The corresponding values for DSQVSEEVKTRHSEKSQREDEEEE [CHGB] are 5.75 ± 0.099 and 5.49 ± 0.21.
Turning to DSTGYMEVSLDSLDLRVKGILSSQ [EHMT1], the protein stability index is 3.08 ± 0.36 (treatment: DMSO) and 3.17 ± 0.29 (treatment: MLN4924 1 uM, 8 h).
The corresponding values for DTDAEGDDFELLDQSELSQLDPAS [RETREG3] are 5.61 ± 0.065 and 5.57 ± 0.16.
The corresponding values for DTETFTWSQPITTGKAPSPRAAHA [KLHDC2] are 4.31 ± 0.082 and 4.41 ± 0.51.
Take DTFQKELMCFDPDTDKWIQKAPMT [KLHL13]: the protein stability index by setting is: (treatment: DMSO) 4.16 ± 0.28; (treatment: MLN4924 1 uM, 8 h) 3.87 ± 0.15.
The corresponding values for DTMLEEVENKEKDSNMPHFQTLQA [CEP70] are 4.94 ± 0.22 and 4.93 ± 0.15.
The corresponding values for DVKAMGPLVLTEVLFNEKIREQIK [EIF5] are 2.39 ± 0.11 and 2.28 ± 0.34.
The corresponding values for DVKCYQGTDIVRGCDPLVKPVGRQ [ADAMTSL2] are 3.68 ± 0.3 and 3.88 ± 0.27.
For DVTAKNIWLAESVLDILTEQREWV [INTS3], the protein stability index came to 2.3 ± 0.24 (treatment: DMSO) and 2.65 ± 0.33 (treatment: MLN4924 1 uM, 8 h).
Taken in the same sequence, the figures for DYVQLENQWETPPEDLQTDLAKLV [ZNF449] were 4.19 ± 0.3 and 4.31 ± 0.059.
EAGYYFFNGNYKVDSPKNFNIAGT [ADAMTSL2]: the protein stability index reads like this: (treatment: DMSO) 2.34 ± 0.35; (treatment: MLN4924 1 uM, 8 h) 2.44 ± 0.31.
Consider EAQERELRKREKAEEKERRRKEYD [LRRC59], for which the protein stability index turned out to be 5.4 ± 0.18 (treatment: DMSO) and 5.49 ± 0.3 (treatment: MLN4924 1 uM, 8 h).
For EASNFQMDRKTRFIIHGFIDKGDE [PNLIPRP1], the protein stability index reads like this: (treatment: DMSO) 3.26 ± 0.21; (treatment: MLN4924 1 uM, 8 h) 3.27 ± 0.27.
The corresponding values for EAVPARGEPQQDCCVKTELLGEET [EHMT1] are 5.52 ± 0.27 and 5.65 ± 0.26.
The corresponding values for ECEKSALTPGFSDNAIMLFSPDFT [FAN1] are 3.49 ± 0.19 and 3.79 ± 0.26.
Taken in the same sequence, the figures for ECSNIPLSQPQQGEAMLANFKPRG [GAN] were 3.5 ± 0.9 and 3.97 ± 0.34.
As to EDEGFVREEEDRALPENEFKKQIW [KCNA4], the protein stability index runs as follows: (treatment: DMSO) 5.18 ± 0.17; (treatment: MLN4924 1 uM, 8 h) 5.19 ± 0.2.
Taken in the same sequence, the figures for EDESQSEEENDYRNLDASPTYKGL [CEP70] were 5.27 ± 0.23 and 5.41 ± 0.15.
Regarding EDITYVLKPTFTKQQIANLDKQAK [USP39], the protein stability index runs as follows: (treatment: DMSO) 4.01 ± 0.097; (treatment: MLN4924 1 uM, 8 h) 4.17 ± 0.13.
For EDLEWERYRGRGSEEYRAPRPQSE [CHGB], the protein stability index reads like this: (treatment: DMSO) 5.19 ± 0.38; (treatment: MLN4924 1 uM, 8 h) 5.33 ± 0.23.
As to EDSSLPSINALLQAEVLSRQITSP [HNF4A], the protein stability index amounted to 4.25 ± 0.16 (treatment: DMSO) and 4.27 ± 0.093 (treatment: MLN4924 1 uM, 8 h).
The corresponding values for EEDEQLRALVRQFGQQDWKFLASH [MYBL2] are 3.17 ± 0.36 and 3.46 ± 0.17.
Taken in the same sequence, the figures for EEEAGQTSIEPSKSSIIPFRALKR [ZER1] were 4.87 ± 0.26 and 5.09 ± 0.16.
Taken in the same sequence, the figures for EEHWVGLKKEPGHPWKWSNGKEFN [CD69] were 3.19 ± 0.27 and 3.33 ± 0.21.
In the case of EEKERIGQFVFARDAKAAMAGRLM [AASDHPPT], the protein stability index reads like this: (treatment: DMSO) 3.36 ± 0.19; (treatment: MLN4924 1 uM, 8 h) 3.43 ± 0.32.
Taken in the same sequence, the figures for EEPSKYGVVVCEADTGRIHRFVEK [GMPPB] were 3.94 ± 0.32 and 3.99 ± 0.18.
EERERKRRKEEEVQQQKLAEERRR [FAF2]: the protein stability index was determined as 5.34 ± 0.34 (treatment: DMSO) and 5.36 ± 0.25 (treatment: MLN4924 1 uM, 8 h).
Taken in the same sequence, the figures for EERILHQQVKCIITEEKVCMVCKK [VPS39] were 4.21 ± 0.33 and 4.39 ± 0.29.
For EESASRQRFGEALQDQEKAWGFPE [ELOA2], the protein stability index is 5 ± 0.16 (treatment: DMSO) and 5 ± 0.31 (treatment: MLN4924 1 uM, 8 h).
EEVVSFVKKNVLVTGGFFGGFLLG [FUNDC2]: the protein stability index amounted to 2.36 ± 0.68 (treatment: DMSO) and 2.61 ± 0.73 (treatment: MLN4924 1 uM, 8 h).
Taken in the same sequence, the figures for EEWLLVGTKQGHLLLYRIRKDVGC [VPS39] were 3.08 ± 1.3 and 2.48 ± 0.5.
The corresponding values for EFFGSASQPAVELVSGSQSALGPP [CLINT1] are 3.96 ± 0.11 and 3.92 ± 0.51.
In the case of EFPQFEPQRYPACAQMLPPNLSPH [TRAF3IP2], the protein stability index runs as follows: (treatment: DMSO) 3.22 ± 0.18; (treatment: MLN4924 1 uM, 8 h) 3.1 ± 0.36.
Consider EFRDDRDLVMALSAGGHGGLLNDT [KCNA4], for which the protein stability index was determined as 4.06 ± 0.35 (treatment: DMSO) and 3.91 ± 0.23 (treatment: MLN4924 1 uM, 8 h).
In the case of EFTELLKVMIHPDPERRPSAMALV [WEE1], the protein stability index reads like this: (treatment: DMSO) 2.23 ± 0.35; (treatment: MLN4924 1 uM, 8 h) 2.06 ± 0.23.
Regarding EFVIIDCRYPYEYEGGHIKGAVNL [CDC25A], the protein stability index was 2.47 ± 0.29 (treatment: DMSO) and 2.3 ± 0.43 (treatment: MLN4924 1 uM, 8 h).
Taken in the same sequence, the figures for EGEIATYRHLLEGEDCKLPPQPCA [KRT36] were 4.6 ± 0.26 and 4.26 ± 0.24.

Source of the values: the supplement of paper PMC10567573.
